{
  "source": "the nanobody polyreactivity screen of Harvey et al. (2022)",
  "data": [
    {"test": "yeast display, Sf9 membrane polyspecificity reagent, FACS + sequencing; frameworks hold sequencing errors", "summary_of_the_method": "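A nanobody's polyreactivity label depends on the gate it was sorted from. Yeast display cells were stained with 10% biotinylated, detergent-solubilized Sf9 membrane reagent for 1 hour at 4 °C, enriched on streptavidin microbeads and sorted by FACS. The low and high (top ~1%) gates were set on anti-HA fluorescence for expression and streptavidin fluorescence for reagent binding.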", "values": [
      {"sequence": "QVQLVESGGGLVQAGGSLRLSCAASGSTFGSYGMGGYRQAPGKERELVAGITSSGSTYYADSVKGRFTISRDNAKNTVYLQMNSLKPDDTAVYYCNARSGIDWYYDNDYWGQGTQVTVSS", "polyreactivity (PSR sort gate)": "low polyreactivity"},
      {"sequence": "QVQLEESGGRLVQAGGSLRLSCAASGSIFALYAMGWYRQAPGKERELVAAIDWSDGGTYYADSVKGRFTISRDNAKNTLYLQMNSLKPEDTAVYYCNRVYSTSRITQYEFDYWGQGTQVTVSS", "polyreactivity (PSR sort gate)": "low polyreactivity"},
      {"sequence": "QVQLQESGGGLVQAGGSLRLSCAASGSITRYYDMGWYRQAPGKEREFVAGISGGAITYYADSVKGRFTISRDNAKNTVYLQMNSLKPEDTAVYYCAADTGVYQYHSYWGQGTQVTVSS", "polyreactivity (PSR sort gate)": "low polyreactivity"},
      {"sequence": "QVQLQESGGGPVLAGGSLRLSCAASGTIFVRLDMGWYRQAPGKEREFVATIGSGSSTYYADSVKGSFTISRDNVKNPVYLQMNSLKPEDTAVYYCAVSAAEQSRHYYWDQGTQVTVSS", "polyreactivity (PSR sort gate)": "low polyreactivity"},
      {"sequence": "QVQLVETGGGLVQAGGSLRLSCAHSGSIFASNAMGWYRHAPGKEREFVAAIRYSGGITYYADSVKGRFTISRDNAKNTVYLQMTSLKPEDTAVYYCAAYGWGNRWYSRFDYWGQGTQVTVSS", "polyreactivity (PSR sort gate)": "high polyreactivity"},
      {"sequence": "QVQLVESGGGLVQAGGSLRLSCAASGSIFKYYAMGWYRQAPGKERELVAAISSSGGSTYYADSVKGRFTISRDYAKYTVYCQMNSLKPQDTAVYYCNTPYIWKNYDYWGQGSQVTVSS", "polyreactivity (PSR sort gate)": "high polyreactivity"},
      {"sequence": "QVQHVESGGGLVQAGGSLRLSCAASGSTLGGYAMGWSRQAPGKERELVAAISGSGGSTYYADSVKGRFTISRDNAKNSVYLQMNSLKPEDTAVYYCNAAVLGGIYRYYDYRYDYWGQGTQLTVSS", "polyreactivity (PSR sort gate)": "low polyreactivity"},
      {"sequence": "QVQLVESGGGLVQAGGSLRLSCAASGNIFYGYAMGWYRQAPGKERELVAAISRAGRTYYADSVKGRFTISRDNAKNTVYLQMNSLKPEDTAVYYCAADFYYASYVRYNYWGQGTQVTVSS", "polyreactivity (PSR sort gate)": "low polyreactivity"},
      {"sequence": "QVQLVESGGGLVQARGSLRLSCAASGTIFASNAMGWLRKAPGKVRELVAAINSGGNTYADSVKGRFTITRDNAKNTVYVHMNSLKPEDTAVYYCAVVWNWCSGLSPGYPEFDYWGQGTQVTVSA", "polyreactivity (PSR sort gate)": "low polyreactivity"},
      {"sequence": "QVQHVESCGGLDQAGGSLRLSCAASGRTFKYYTMGWYRQAPGKQREFVAAISTGGSTHYADSVKGRFTISRDNAKNTVYLQMNSLKPEVTAVSYCAAGCVLWVRDPQGRASYYWGQGTHVTVSS", "polyreactivity (PSR sort gate)": "high polyreactivity"},
      {"sequence": "QVQLVESGGGLVQAGGSLRLSCAASGRTFLIYAMGWYRQAPGKEREFVATITYSGGSTYYADSVKGRFTISRDNAKNTVYLQMNSLKPEDTAVYYCAAVRYGYRRSGPYNYSYDYWGQGTQVTVSS", "polyreactivity (PSR sort gate)": "high polyreactivity"},
      {"sequence": "QVQLVESGGGLVQAGGSLRLTCAASGRTLNPYAMGWYRQAPGKERELVAAITWRGGSTYYADSVKGRFTISRDNAKNTVYLQMNSLKPEDTAVYYCAAREYYYPYYYWGQGTQVTVSS", "polyreactivity (PSR sort gate)": "high polyreactivity"},
      {"sequence": "QVQLVESGGGLVQAGGSLRLSCAASGLTFAGNAMGWYRQAPGKEREFVATITWSDGSTRYADSVKGRFTISRDNAKNTVYLQMNSLKPEDTAVYYCNTQYPDYFYEFNYWGQGTQVTVSS", "polyreactivity (PSR sort gate)": "low polyreactivity"},
      {"sequence": "QVQLVESGGGLVQAGGSLRLSCAASGFTFLVYAMGWYRQAPGKERELVAAITWSGDSTYYADSVKGRFTISRDNAKNTVYLQMNSLKPEDTAVYYCAAAYRYGTLYYYWGQGTQVTGSS", "polyreactivity (PSR sort gate)": "low polyreactivity"},
      {"sequence": "QVQLVESGGCLVQAGGSLRLSCAASGRISPDYAMGWYRQAPGTERELVATISSGAGTTYYADSVKGRFTISRDNAKNTVYLQMNSLKPEDTAVYYCAAEDPSEFDYWGQGTQVTVSS", "polyreactivity (PSR sort gate)": "low polyreactivity"},
      {"sequence": "QVQLVESGGGLVQAGGSLRLSCAASGRIFRWNAMGWYRQAPGKERELVAAISWNGGRTYYADSVKGRFTISRDNAKNTVYLQMNSLKPEDTAVYYCAAPHSVPDLHSGDYWGQGSQVTVSS", "polyreactivity (PSR sort gate)": "low polyreactivity"},
      {"sequence": "QVQLVESGGGLVQAGGSLRLSCAASGSTFALYVMGRYRQAPGKERELVAAINSVGSKYYADSVKGRFTISRDNAKNTVYLQMHSLKPEDTSVYYCAAVSTYRPGWYYRYNYWGHGTQVTVSS", "polyreactivity (PSR sort gate)": "high polyreactivity"},
      {"sequence": "QVQLVESGGGLVQAGGSLRLSCAASGRIFWYYTMGWYRQAPGKERELVAAISNGGSTYYADSVKGRFTISRDNAKNPVYLQMNSLKPEDTAVYYCAADNFRNPDYYYWGQGTQVTVSS", "polyreactivity (PSR sort gate)": "high polyreactivity"},
      {"sequence": "QVQLVESGGGLVQAGGSLRLSCAASGFTSDGYAMGWYRQAPGKERELVAAISWRGGSTYYADSVKGRFTISRDNAKNTVYLQMNSLKPEDTAVYYCAKDYYYGLEHYGYWGQGTQVTVSS", "polyreactivity (PSR sort gate)": "low polyreactivity"},
      {"sequence": "QVQLVESGGGLVQAGGSLRLSCAASGFTFYANAMGWYRQAPGKERELVAAITQGGDSTYFADSVKGRFTISRDNAKKSVYLQLNSLKREDTAVYYCNTDLLCEYDYWGQGTQVTVSS", "polyreactivity (PSR sort gate)": "low polyreactivity"},
      {"sequence": "QVQLVESGGGLVQAGGSLRLSCAASGRTFRYYAMGWYRQAPGKERELVAAIDTSSGSTYYADSVKGRFTISRDYAKNTVYLQMNSLKPEDTAVYYCNANWWIPLIYDYWGQGTQVTVSS", "polyreactivity (PSR sort gate)": "low polyreactivity"},
      {"sequence": "QVQLLESGGGLVQAGGSLRLTCAASVIIFYPYAMVWYRQAPGKERELVAAISIGGGSTYYADSVKGRFTISRDNAKNTVYLQMNSLKPEDTAVYYCAAGTPYGILGYYYWGQGTQVTVSS", "polyreactivity (PSR sort gate)": "low polyreactivity"},
      {"sequence": "QVQLVESGGGLVQAGGSLRLSCAASGIIFLNYVMGWYRQAPGKERELVAAITTSGASTYYADSVKGRFTISRDNAKNTVYLQMNSLKPEDTAVYYCAAVFRHARYRYDYWGLGTQVTVSS", "polyreactivity (PSR sort gate)": "high polyreactivity"},
      {"sequence": "QVQLVESGGGLVQAGGSLRLSCAASGRIFYKYVRGCYRQAPGKDRELVATITSGGSTYYADSVKGRFTISRDNAKNTVYLQMNSLNPEDTAVYYCAARKYYSRAYDYWGQGTQVTVSS", "polyreactivity (PSR sort gate)": "high polyreactivity"},
      {"sequence": "QVQLVESGGGLVQAGGSLRLSCAASGITFYFYTMGWYRQAPGKERELVAAISRGGGSTYYADSVKGRFTISRDNAKNTVYLQMNSLKPEDTAVYYCAADYKPHYYHDDYWGQGTQVTVSS", "polyreactivity (PSR sort gate)": "low polyreactivity"},
      {"sequence": "QVQLVESGGGLVQAGGSLRLSCAASGSIFPGYAMGWYRQAPGKERELVATITWSGGSTYYADSVKGRFTISRDNAKNTVYLQMNSLKPEDTAVYYCAADGVDRYLRTISYLYGYWGQGTQVTVSS", "polyreactivity (PSR sort gate)": "low polyreactivity"},
      {"sequence": "QVQLVESGGGLDQAGGSLRLSCAASGSIFHWNVMGWYRQAPGKERKLVAVISSSDGSTNYADSVKGRFTISRDNAKNTVYLQMNCLKPEDTAVYYCAARGYAINYLWPFNYWGQGTQVTVSS", "polyreactivity (PSR sort gate)": "low polyreactivity"},
      {"sequence": "QVQLVESGGGLVQSGGSLPLSCAASGRIFSRNAMGWYRQAPGKERELVAAITSGGSTYYADSVKGRFTISRDNAKNTVYLQMNSLKPEDTAVSTVKILRYDYWGQGTQVTVSS", "polyreactivity (PSR sort gate)": "high polyreactivity"},
      {"sequence": "QVQLVESGGGLVQAGGTLRLSCAASGFIFENYAMGWYRQAPGKERELVAAISSSGGSTYYADSVKGRFTISRDNAKNTVYLQMNSLKPEDTAVYYCAKDYAPSATKLHYWGQGTQVTVSS", "polyreactivity (PSR sort gate)": "low polyreactivity"},
      {"sequence": "QVQLVESGGGLVQAGGSLRLSCAASGSTFTWYAMGWYRQAPGKERELVADISYGGGSTYYADSVKGRFTISRDNAKNTVYLQMNSLKPEDTAVYYCAADYRWYQRGNPMDYWGQGTQVNVSS", "polyreactivity (PSR sort gate)": "low polyreactivity"}
    ]}
  ]
}
